According to patent US10434147B2, “Treatment type 2 diabetes mellitus patients” (Sanofi-Aventis Deutschland GmbH, priority 2015, dated 2019):

How the values were obtained:
Type in all cases: in vivo, human
[1] = test system: Patients with Type 2 Diabetes Insufficiently Controlled with Insulin Glargine with or without Metformin; experiment: Treatment-emergent adverse events, 26-week study
Excerpt: (§1) FIG. 6—Graphical study design. ^1 Insulin glargine should be injected subcutaneously once daily at dinner or breakfast time (according to patient's/investigators' preference). […] Meal used for insulin glulisine dosing should remain the same throughout the 26-week treatment period. ^4 Injection of insulin glulisine prior to breakfast, lunch and dinner.
(§2) Co-primary endpoints at 26 weeks were (1) non-inferiority (95% CI upper bound <0.4%) in HbA1c reduction with LIXI vs GLU-1 and (2) for LIXI vs GLU-3, either non-inferiority in HbA1c reduction (2a) OR superiority (one-sided α≤0.025) in body weight change (2b). FPG, PPG, IG dose, composite outcomes, AEs, and hypoglycemia were assessed.

[2] = test system: Patients with Type 2 Diabetes Insufficiently Controlled with Insulin Glargine with or without Metformin; experiment: Body weight, 26-week study
Excerpt: as §1, §2

[3] = test system: Patients with Type 2 Diabetes Insufficiently Controlled with Insulin Glargine with or without Metformin; experiment: 2-h PPG post test meal, 26-week study; conditions: subset of mITT treated before breakfast
Procedure: as §2

[4] = Safety population, PT ≥ 3% table
[5] = Baseline (before IMP), mITT population
[6] = Week 26 (LOCF), mITT population

Insulin Glulisine TID: insulin glulisine three times daily, added to insulin glargine ± metformin (comparator arm)
22 (7.5%) n (%): Patients with TEAE: Gastrointestinal disorders (SOC) ([1]; in vivo)
1.20 kg: Body weight, Change from baseline to Week 26 (LOCF), Median ([2]; mITT population)
5 (1.7%) n (%): Patients with treatment emergent SAE: Cardiac disorders (SOC) ([1]; in vivo)
-25 ± 11 mg/dL: 2-h PPG post test meal, LS mean ± SE change from BL ([3]; Week 26)
262 ± 63 mg/dL: 2-h PPG post test meal, BL (end run-in) mean ± SD ([3]; BL)
157 (53.4%) n (%): Patients with TEAE: Metabolism and nutrition disorders (SOC) [1, 4]
3 (1.0%) n (%): Patients with TEAE: Nausea ([1]; in vivo) | Patients with any TEAE leading to permanent treatment discontinuation ([1]; in vivo) | Patients with treatment emergent SAE: Neoplasms benign, malignant and unspecified (incl cysts and polyps) (SOC) ([1]; in vivo) | TEAE leading to permanent treatment discontinuation: Any class ([1]; in vivo)
1.37 (0.271) kg: Body weight, Change from baseline to Week 26 (LOCF), LS Mean (SE) ([2]; ANCOVA, mITT population)
90.50 kg: Body weight, Week 26 (LOCF), Median [2, 6]
3 (1) n (%): Gastrointestinal AEs: Nausea ([1]; in vivo)
229 ± 69 mg/dL: 2-h PPG post test meal, Week 26 (LOCF) mean ± SD ([3]; Week 26 (LOCF))
−1.99 (0.305) kg: Body weight change to Week 26, LS Mean difference (SE) of Lixisenatide vs. the labelled insulin glulisine arm ([2]; ANCOVA, mITT population, p <.0001)
88.70 kg: Body weight, Baseline, Median [2, 5]
2 (0.7%) n (%): Patients with any TEAE leading to death ([1]; Safety population) | Patients with treatment emergent SAE: Cerebrovascular accident ([1]; in vivo) | Patients with treatment emergent SAE: Nervous system disorders (SOC) ([1]; in vivo)
28 (9.5%) n (%): Patients with TEAE: Injury, poisoning and procedural complications (SOC) [1, 4]
11 (3.7%) n (%): Patients with TEAE: Upper respiratory tract infection ([1]; in vivo)
-2.0 kg: Body Weight, LS mean treatment difference (lixisenatide vs the labelled arm) ([2]; Week 26, mITT, p < 0.0001, Example 2 table)
6 (2.0%) n (%): Patients with TEAE: Vomiting ([1]; in vivo)
91.3 ± 17.3 kg: Body Weight, Week 26 (LOCF) mean ± SD ([2]; Week 26 (LOCF), mITT, Example 2 table)
14 (4.8%) n (%): Patients with TEAE: Influenza [1, 4] | Patients with any treatment emergent SAE ([1]; in vivo) | Patients with treatment emergent SAE: Any class ([1]; in vivo)
1.4 ± 0.3 kg: Body Weight, LS mean ± SE change from BL ([2]; Week 26, mITT, Example 2 table)
1 (0.3%) n (%): Patients with treatment emergent SAE: Accidental overdose ([1]; Safety population) | Patients with TEAE on the specific adverse event form for increased calcitonin (>=20 ng/L): Any ([1]; in vivo) | Patients with TEAE on the specific adverse event form for increased calcitonin (>=20 ng/L): Blood calcitonin increased ([1]; in vivo) | Patients with events adjudicated as allergic reaction by ARAC: All, Any category, Any event ([1]; in vivo) | Patients with events adjudicated as allergic reaction by ARAC: OTHER ALLERGIC REACTION, Rhinitis allergic ([1]; in vivo) | Patients with treatment emergent SAE: Angina pectoris ([1]; in vivo) | Patients with treatment emergent SAE: Atrioventricular block complete ([1]; in vivo) | Patients with treatment emergent SAE: Basal cell carcinoma ([1]; in vivo) | Patients with treatment emergent SAE: Cardiac failure chronic ([1]; in vivo) | Patients with treatment emergent SAE: Cardiac failure congestive ([1]; in vivo) | Patients with treatment emergent SAE: Cellulitis ([1]; in vivo) | Patients with treatment emergent SAE: Hypertension ([1]; in vivo) | Patients with treatment emergent SAE: Infections and infestations (SOC) ([1]; in vivo) | Patients with treatment emergent SAE: Injury, poisoning and procedural complications (SOC) ([1]; in vivo) | Patients with treatment emergent SAE: Invasive ductal breast carcinoma ([1]; in vivo) | Patients with treatment emergent SAE: Myocardial ischaemia ([1]; in vivo) | Patients with treatment emergent SAE: Neoplasm malignant ([1]; in vivo) | Patients with treatment emergent SAE: Skin and subcutaneous tissue disorders (SOC) ([1]; in vivo) | Patients with treatment emergent SAE: Skin ulcer haemorrhage ([1]; in vivo) | Patients with treatment emergent SAE: Vascular disorders (SOC) ([1]; in vivo) | TEAE leading to permanent treatment discontinuation: Cardiac disorders (SOC) ([1]; in vivo) | TEAE leading to permanent treatment discontinuation: Cardiac failure chronic ([1]; in vivo) | TEAE leading to permanent treatment discontinuation: Immune system disorders (SOC) ([1]; in vivo) | TEAE leading to permanent treatment discontinuation: Seasonal allergy ([1]; in vivo) | TEAE leading to permanent treatment discontinuation: Skin and subcutaneous tissue disorders (SOC) ([1]; in vivo) | TEAE leading to permanent treatment discontinuation: Skin ulcer haemorrhage ([1]; in vivo)
236 (80.3%) n (%): Patients with TEAE: Any class ([1]; in vivo) | Patients with any TEAE ([1]; in vivo)
0 n (%): Adjudicated by PSAC: Acute on chronic pancreatitis ([1]; in vivo) | Adjudicated by PSAC: Acute pancreatitis ([1]; in vivo) | Adjudicated by PSAC: Chronic pancreatitis ([1]; in vivo) | Adjudicated by PSAC: Unknown pancreatitis ([1]; in vivo) | Patients with events adjudicated as allergic reaction by ARAC: Possibly Related to IMP, Any event ([1]; in vivo) | Patients with events adjudicated as allergic reaction by ARAC: URTICARIA (HIVES), Urticaria ([1]; in vivo) | Patients with treatment emergent SAE: Abdominal pain ([1]; in vivo) | Patients with treatment emergent SAE: Angina unstable ([1]; in vivo) | Patients with treatment emergent SAE: Ankle fracture ([1]; in vivo) | Patients with treatment emergent SAE: Atrial fibrillation ([1]; in vivo) | Patients with treatment emergent SAE: Decreased appetite ([1]; in vivo) | Patients with treatment emergent SAE: Dehydration ([1]; in vivo) | Patients with treatment emergent SAE: Diabetic bullosis ([1]; in vivo) | Patients with treatment emergent SAE: Epigastric discomfort ([1]; in vivo) | Patients with treatment emergent SAE: Erysipelas ([1]; in vivo) | Patients with treatment emergent SAE: Gastric ulcer haemorrhage ([1]; in vivo) | Patients with treatment emergent SAE: Gastrointestinal disorders (SOC) ([1]; in vivo) | Patients with treatment emergent SAE: Hepatic mass ([1]; in vivo) | Patients with treatment emergent SAE: Hepatobiliary disorders (SOC) ([1]; in vivo) | Patients with treatment emergent SAE: Hypoglycaemia ([1]; in vivo) | Patients with treatment emergent SAE: Hypoglycaemic unconsciousness ([1]; in vivo) | Patients with treatment emergent SAE: Incisional hernia ([1]; in vivo) | Patients with treatment emergent SAE: Metabolism and nutrition disorders (SOC) ([1]; in vivo) | Patients with treatment emergent SAE: Myocardial infarction ([1]; in vivo) | Patients with treatment emergent SAE: Neuritis cranial ([1]; in vivo) | Patients with treatment emergent SAE: Pancreatic carcinoma metastatic ([1]; in vivo) | Patients with treatment emergent SAE: Penile infection ([1]; in vivo) | Patients with treatment emergent SAE: Renal and urinary disorders (SOC) ([1]; in vivo) | Patients with treatment emergent SAE: Renal failure ([1]; in vivo) | Patients with treatment emergent SAE: Renal failure acute ([1]; in vivo) | Patients with treatment emergent SAE: Septic arthritis staphylococcal ([1]; in vivo) | Patients with treatment emergent SAE: Uterine cancer ([1]; in vivo) | TEAE leading to permanent treatment discontinuation: Abdominal pain ([1]; in vivo) | TEAE leading to permanent treatment discontinuation: Ascites ([1]; in vivo) | TEAE leading to permanent treatment discontinuation: Blood and lymphatic system disorders (SOC) ([1]; in vivo) | TEAE leading to permanent treatment discontinuation: Blood glucose decreased ([1]; in vivo) | TEAE leading to permanent treatment discontinuation: Cough ([1]; in vivo) | TEAE leading to permanent treatment discontinuation: Decreased appetite ([1]; in vivo) | TEAE leading to permanent treatment discontinuation: Dehydration ([1]; in vivo) | TEAE leading to permanent treatment discontinuation: Diabetic bullosis ([1]; in vivo) | TEAE leading to permanent treatment discontinuation: Diarrhoea ([1]; in vivo) | TEAE leading to permanent treatment discontinuation: Dyspepsia ([1]; in vivo) | TEAE leading to permanent treatment discontinuation: Epigastric discomfort ([1]; in vivo) | TEAE leading to permanent treatment discontinuation: Gastric ulcer haemorrhage ([1]; in vivo) | TEAE leading to permanent treatment discontinuation: Gastrointestinal disorders (SOC) ([1]; in vivo) | TEAE leading to permanent treatment discontinuation: Headache ([1]; in vivo) | TEAE leading to permanent treatment discontinuation: Hepatic mass ([1]; in vivo) | TEAE leading to permanent treatment discontinuation: Hepatobiliary disorders (SOC) ([1]; in vivo) | TEAE leading to permanent treatment discontinuation: Hot flush ([1]; in vivo) | TEAE leading to permanent treatment discontinuation: Hypoglycaemia ([1]; in vivo) | TEAE leading to permanent treatment discontinuation: Invasive ductal breast carcinoma ([1]; in vivo) | TEAE leading to permanent treatment discontinuation: Investigations (SOC) ([1]; in vivo) | TEAE leading to permanent treatment discontinuation: Lymphadenopathy ([1]; in vivo) | TEAE leading to permanent treatment discontinuation: Metabolism and nutrition disorders (SOC) ([1]; in vivo) | TEAE leading to permanent treatment discontinuation: Metastases to liver ([1]; in vivo) | TEAE leading to permanent treatment discontinuation: Metastases to peritoneum ([1]; in vivo) | TEAE leading to permanent treatment discontinuation: Nasal congestion ([1]; in vivo) | TEAE leading to permanent treatment discontinuation: Nausea ([1]; in vivo) | TEAE leading to permanent treatment discontinuation: Neoplasms benign, malignant and unspecified (incl cysts and polyps) (SOC) ([1]; in vivo) | TEAE leading to permanent treatment discontinuation: Nervous system disorders (SOC) ([1]; in vivo) | TEAE leading to permanent treatment discontinuation: Pancreatic carcinoma metastatic ([1]; in vivo) | TEAE leading to permanent treatment discontinuation: Renal and urinary disorders (SOC) ([1]; in vivo) | TEAE leading to permanent treatment discontinuation: Renal failure ([1]; in vivo) | TEAE leading to permanent treatment discontinuation: Respiratory, thoracic and mediastinal disorders (SOC) ([1]; in vivo) | TEAE leading to permanent treatment discontinuation: Thrombosis ([1]; in vivo) | TEAE leading to permanent treatment discontinuation: Tremor ([1]; in vivo) | TEAE leading to permanent treatment discontinuation: Vascular disorders (SOC) ([1]; in vivo) | TEAE leading to permanent treatment discontinuation: Vomiting ([1]; in vivo) | Total number of patients with any event adjudicated as pancreatitis by PSAC ([1]; in vivo)
91.29 (17.27) kg: Body weight, Week 26 (LOCF), Mean (SD) [2, 6]
29 (9.9%) n (%): Patients with TEAE: Nervous system disorders (SOC) ([1]; in vivo)
4 (1.4%) n (%): Patients with TEAE: Diarrhoea ([1]; in vivo)
90.0 ± 17.2 kg: Body Weight, BL mean ± SD ([2]; BL, mITT, Example 2 table)
6 (2) n (%): Gastrointestinal AEs: Vomiting ([1]; in vivo)
154 (52.4%) n (%): Patients with TEAE: Hypoglycaemia [1, 4]
12 (4.1%) n (%): Patients with TEAE: Headache [1, 4]
90.00 (17.21) kg: Body weight, Baseline, Mean (SD) [2, 5]
4 (1) n (%): Gastrointestinal AEs: Diarrhea ([1]; in vivo)
82 (27.9%) n (%): Patients with TEAE: Blood glucose decreased ([1]; in vivo)
1.29 (2.80) kg: Body weight, Change from baseline to Week 26 (LOCF), Mean (SD) ([2]; mITT population)
18 (6.1%) n (%): Patients with TEAE: Nasopharyngitis ([1]; in vivo)
92 (31.3%) n (%): Patients with TEAE: Investigations (SOC) [1, 4]
-40 mg/dL: 2-h PPG post test meal, LS mean treatment difference (lixisenatide vs the labelled arm) ([3]; Week 26)
81 (27.6%) n (%): Patients with TEAE: Infections and infestations (SOC) [1, 4]
20 (6.8%) n (%): Patients with TEAE: Accidental overdose [1, 4]
